Experimental data taken from EP4818204A1 (Nanjing Leads Biolabs Co., Ltd., dated 2026).

Key:
[1] = biological target: T1, human GDF2 protein (human, UniProt Q9UK05 320-429); experiment: ELISA, coated protein
T1 construct: Bought
T1 sequence (looked up): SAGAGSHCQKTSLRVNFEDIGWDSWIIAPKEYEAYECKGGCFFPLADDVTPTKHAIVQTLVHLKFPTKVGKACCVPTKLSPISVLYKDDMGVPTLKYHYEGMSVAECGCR

[2] = biological target: T2, human BMP4 protein (human, UniProt P12644 293-408); experiment: ELISA, coated protein
T2 construct: Bought
T2 sequence (looked up): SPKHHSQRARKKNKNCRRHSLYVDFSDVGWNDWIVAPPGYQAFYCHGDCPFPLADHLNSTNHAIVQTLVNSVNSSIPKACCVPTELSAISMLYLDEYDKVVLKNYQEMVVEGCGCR

[3] = biological target: T3, human TGFβ1 protein (human, UniProt P01137 279-390); experiment: ELISA, coated protein
T3 construct: Bought

[4] = biological target: T4, human Activin A protein (human, UniProt P08476 311-426); experiment: ELISA, coated protein
T4 construct: Bought; Activin A is by nature a dimer of inhibin beta A chains
T4 sequence (looked up): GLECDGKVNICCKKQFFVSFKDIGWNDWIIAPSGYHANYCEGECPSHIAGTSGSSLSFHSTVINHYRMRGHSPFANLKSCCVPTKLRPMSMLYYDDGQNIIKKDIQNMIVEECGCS

[5] = biological target: T5, human GDF1 protein (human, UniProt P27539 254-372, limits assumed); experiment: ELISA, coated protein
T5 construct: Bought
T5 sequence (looked up): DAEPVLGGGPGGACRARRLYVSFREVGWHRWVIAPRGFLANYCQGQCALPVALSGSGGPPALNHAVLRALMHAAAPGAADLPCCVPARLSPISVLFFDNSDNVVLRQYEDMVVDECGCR

[6] = biological target: T6, human GDF11 protein (human, UniProt O95390 299-407); experiment: ELISA, coated protein
T6 construct: Bought
T6 sequence (looked up): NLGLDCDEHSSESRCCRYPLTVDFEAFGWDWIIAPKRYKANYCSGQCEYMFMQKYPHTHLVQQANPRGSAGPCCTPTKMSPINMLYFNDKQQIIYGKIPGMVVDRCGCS

[7] = biological target: T7, human Activin B protein (human, UniProt P09529 293-407); experiment: ELISA, coated protein
T7 construct: Bought; Activin B is by nature a dimer of inhibin beta B chains
T7 sequence (looked up): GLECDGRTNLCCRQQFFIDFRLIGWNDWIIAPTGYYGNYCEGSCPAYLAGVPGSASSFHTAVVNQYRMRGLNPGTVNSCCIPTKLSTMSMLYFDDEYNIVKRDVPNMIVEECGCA

[8] = biological target: T8, human GFRα1 protein (human, UniProt P56159 25-429, limits assumed); experiment: ELISA, coated protein
T8 construct: Bought
T8 sequence (looked up): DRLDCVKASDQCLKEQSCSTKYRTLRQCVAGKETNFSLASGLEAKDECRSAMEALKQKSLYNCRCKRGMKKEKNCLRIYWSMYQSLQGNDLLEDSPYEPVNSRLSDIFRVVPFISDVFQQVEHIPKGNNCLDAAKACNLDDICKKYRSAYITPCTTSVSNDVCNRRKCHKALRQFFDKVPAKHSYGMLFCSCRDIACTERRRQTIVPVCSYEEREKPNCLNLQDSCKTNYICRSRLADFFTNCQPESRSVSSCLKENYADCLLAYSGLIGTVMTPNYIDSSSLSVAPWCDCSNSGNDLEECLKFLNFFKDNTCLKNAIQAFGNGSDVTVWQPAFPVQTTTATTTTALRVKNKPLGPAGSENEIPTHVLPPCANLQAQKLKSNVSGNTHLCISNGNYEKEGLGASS

[9] = biological target: T9, human BMP2 protein (human, UniProt P12643 283-396); experiment: ELISA, coated protein
T9 construct: Bought

[10] = biological target: T10, human GDF3 protein (human, UniProt Q9NR23 251-364, limits assumed); experiment: ELISA, coated protein
T10 construct: Bought
T10 sequence (looked up): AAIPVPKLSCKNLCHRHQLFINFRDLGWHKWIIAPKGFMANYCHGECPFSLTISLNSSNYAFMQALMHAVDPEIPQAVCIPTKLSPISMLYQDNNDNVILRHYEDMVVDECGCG

[11] = biological target: human AMH protein (human) (UniProt P03971); experiment: ELISA, coated protein, antibody at 4 µg/mL
[12] = biological target: human GDF8 protein (human) (UniProt O14793); experiment: ELISA, coated protein, antibody at 4 µg/mL
[13] = biological target: T1, human GDF2 protein; experiment: ELISA, coated protein, antibody at 4 µg/mL
[14] = biological target: T2, human BMP4 protein; experiment: ELISA, coated protein, antibody at 4 µg/mL
[15] = biological target: T3, human TGFβ1 protein; experiment: ELISA, coated protein, antibody at 4 µg/mL
[16] = biological target: T4, human Activin A protein; experiment: ELISA, coated protein, antibody at 4 µg/mL
[17] = biological target: T11, Human GDF15 protein (human, UniProt Q99988 197-308); experiment: ELISA, coated protein, antibody at 4 µg/mL
T11 construct: Natural GDF15 is said to be a disulfide-linked homodimer; also called Human-GDF15-his
T11 sequence: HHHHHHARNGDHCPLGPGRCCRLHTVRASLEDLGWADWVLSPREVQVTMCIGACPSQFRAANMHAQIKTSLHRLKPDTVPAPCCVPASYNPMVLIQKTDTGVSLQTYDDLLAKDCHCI

[18] = biological target: T5, human GDF1 protein; experiment: ELISA, coated protein, antibody at 4 µg/mL
[19] = biological target: T6, human GDF11 protein; experiment: ELISA, coated protein, antibody at 4 µg/mL
[20] = biological target: T7, human Activin B protein; experiment: ELISA, coated protein, antibody at 4 µg/mL
[21] = biological target: T8, human GFRα1 protein; experiment: ELISA, coated protein, antibody at 4 µg/mL
[22] = biological target: T9, human BMP2 protein; experiment: ELISA, coated protein, antibody at 4 µg/mL
[23] = biological target: T10, human GDF3 protein; experiment: ELISA, coated protein, antibody at 4 µg/mL

T3 sequence (P01137 279-390 limits assumed): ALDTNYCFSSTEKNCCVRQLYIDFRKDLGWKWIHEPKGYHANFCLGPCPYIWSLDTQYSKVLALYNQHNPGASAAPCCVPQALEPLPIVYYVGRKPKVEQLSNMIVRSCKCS
T9 sequence (P12643 283-396 limits assumed): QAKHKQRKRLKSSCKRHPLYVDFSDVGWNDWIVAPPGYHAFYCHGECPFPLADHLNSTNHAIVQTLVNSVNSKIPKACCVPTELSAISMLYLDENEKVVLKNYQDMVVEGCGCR

B1: Hu21H6D2 (antibody, human IgG1, kappa, V domains shown)
VH: QVQLVQSGAEVKKPGASVKVSCKASGYTFTGYIMNWVRQAPGQRLEWMGDIDPYYGDAKYNQKFKGKVTITVDKSASTAYMELSSLRSEDTAVYYCARRDYDHGSFAYWGQGTLVTVSS
VL: EIVLTQSPDFQSVTPKEKVTITCSASSSVNYMHWYQQKPDQSPKRLIYDTSKLASGVPSRFSGSGSGTDYTLTINSLEAEDAATYYCQQWSSNPPTFGQGTKLEIKR
notes: Humanized form of murine 21H6D2; human IgG1 constant region with L234A, L235A, G237A and kappa light chain constant region; also called hu21H6D2-IgG1-mut(L234A,L235A,G237A)
binding result [1]: no binding (tested: 4 µg/mL)
binding result [2]: no binding (tested: 4 µg/mL)
binding result [3]: no binding (tested: 4 µg/mL)
binding result [4]: no binding (tested: 4 µg/mL)
binding result [5]: no binding (tested: 4 µg/mL)
binding result [6]: no binding (tested: 4 µg/mL)
binding result [7]: no binding (tested: 4 µg/mL)
binding result [8]: no binding (tested: 4 µg/mL)
binding result [9]: no binding (tested: 4 µg/mL)
binding result [10]: no binding (tested: 4 µg/mL)
OD value (OD 450 nm-620 nm) [11]: 0.0537
OD value (OD 450 nm-620 nm) [12]: 0.0426
OD value [13]: 0.0648 OD 450 nm-620 nm
OD value [14]: 0.0411 OD 450 nm-620 nm
OD value [15]: 0.0426 OD 450 nm-620 nm
OD value [16]: 0.0632 OD 450 nm-620 nm
OD value [17]: 3.17 OD 450 nm-620 nm
OD value [18]: 0.0412 OD 450 nm-620 nm
OD value [19]: 0.0426 OD 450 nm-620 nm
OD value [20]: 0.0899 OD 450 nm-620 nm
OD value [21]: 0.0655 OD 450 nm-620 nm
OD value [22]: 0.0683 OD 450 nm-620 nm
OD value [23]: 0.041 OD 450 nm-620 nm

B2: HuVHH43-3 (Fc fusion)
heavy: QLQLVESGGGLVQPGGSLRLSCAASGHTYGMGWFRQAPGKAREIVSAISRSGSSTYYADSVKGRFTISRDNSKNTLYLQMNSLRAEDTAVYICGASTSALVPTTTGMYAYWGQGTRVTVSSEPKSSDKTHTCPPCPAPEAAGAPSVFLFPPKPKDTLMISRTPEVTCVVVDVSHEDPEVKFNWYVDGVEVHNAKTKPREEQYNSTYRVVSVLTVLHQDWLNGKEYKCKVSNKALPAPIEKTISKAKGQPREPQVYTLPPSREEMTKNQVSLTCLVKGFYPSDIAVEWESNGQPENNYKTTPPVLDSDGSFFLYSKLTVDKSRWQQGNVFSCSVMHEALHNHYTQKSLSLSPGK
notes: also called huVHH43-IgG1-mut(L234A,L235A,G237A); VHH humanized anti-GDF15 antibody
binding result [1]: no binding (tested: 4 µg/mL)
binding result [2]: no binding (tested: 4 µg/mL)
binding result [3]: no binding (tested: 4 µg/mL)
binding result [4]: no binding (tested: 4 µg/mL)
binding result [5]: no binding (tested: 4 µg/mL)
binding result [6]: no binding (tested: 4 µg/mL)
binding result [7]: no binding (tested: 4 µg/mL)
binding result [8]: no binding (tested: 4 µg/mL)
binding result [9]: no binding (tested: 4 µg/mL)
binding result [10]: no binding (tested: 4 µg/mL)
OD value (OD 450 nm-620 nm) [11]: 0.0485
OD value (OD 450 nm-620 nm) [12]: 0.0421
OD value [13]: 0.0644 OD 450 nm-620 nm
OD value [14]: 0.0539 OD 450 nm-620 nm
OD value [15]: 0.055 OD 450 nm-620 nm
OD value [16]: 0.0493 OD 450 nm-620 nm
OD value [17]: 3.21 OD 450 nm-620 nm
OD value [18]: 0.0504 OD 450 nm-620 nm
OD value [19]: 0.04 OD 450 nm-620 nm
OD value [20]: 0.062 OD 450 nm-620 nm
OD value [21]: 0.27 OD 450 nm-620 nm
OD value [22]: 0.0538 OD 450 nm-620 nm
OD value [23]: 0.0406 OD 450 nm-620 nm
